Source: patent US20180031558A1, “BIOMARKERS OF ACUTE LIVER INJURY” (The Regents of the University of Michigan, priority 2014, published 2018)
Entries after “also recorded” stand apart in the source; their conditions may differ. Where two headings read alike, the source gives them in different places.

Columns and labels:
liver [1] = assay: FasL and APAP induced mouse liver injury, histological analysis of liver sections; type: in vivo; conditions: mice, intraperitoneal; FasL 0.15 μg/g, 4 h; APAP 700 mg/Kg, 8 h
Protocol: FIG. 4. CPS1 is released into serum during FasL and APAP induced mouse liver injury. Mice were injected with FasL (0.15 μg/g) and APAP (700 mg/Kg) and sacrificed after 4 h and 8 h, respectively. Liver damage was analyzed serologically, biochemically and histologically. Panel A: Immunoblots of serum CPS1, HMGB1 and caspase activation using total liver lysate. Coomassie stain of serum IgG heavy chain (just above the 50 kDa prominent species) and IgG light chain (25 kDa), and an actin blot of total liver lysates are included as loading controls. Serum ALT of the individual mice is also indicated (bottom of panel). Panel B: Hematoxylin and eosin stained liver sections. […] Scale bar=40 μm.
(§1) Primary hepatocytes from mice were isolated (Snider et al. J Cell Biol 195: 217-29, 2011.; herein incorporated by reference in its entirety). […] Serum ALT levels were determined using a Vetscan-vs2 instrument (ABAXIS) using the comprehensive diagnostic profile cartridge or using Unit for Laboratory Animal Medicine (ULAM) core facility at University of Michigan. […]
Mice were injected with FasL in saline (to induce apoptosis), or with APAP in DMSO (to induced necrosis) or were injected with vehicle (saline or DMSO). The serum and liver histology were then analyzed. For both the APAP and FasL conditions, CPS1 was more easily detected in the serum of the mice and parallels the elevation of ALT (FIG. 4A). […]

liver [2] = conditions: mice fed 0.1% DDC for 10 days, 15 days, 6 weeks, 3 months
Protocol: Serum CPS1 in chronic liver injury. Panel A: The presence of serum CPS1 and HMGB1 was tested in animals exposed to the hepatotoxin DDC for 10 days, 15 days, 6 weeks and 3 months. Corresponding serum ALT values are also included. […] Each lane corresponds to serum from separate mice. Two mice for each time point were shown except the control. Panel B: Hematoxylin and eosin staining of livers from control and DDC-administered mice. Scale bar=40 μm. Panels C and D: Human sera from patients with chronic hepatitis B virus infection (HBV), chronic hepatitis C infection (HCV), or controls were analyzed for the presence of CPS1 and HMGB1. Serum from APAP and from control donors with normal ALT were used as positive and negative controls, respectively. […] Each lane represents separate patients or donors.
To test the CPS1 release during chronic mouse liver injury, mice were fed 0.1% DDC (a porphyrinogenic hepatotoxin) for 10-days, 15-days, 6-weeks and 3-months and serum CPS1 levels were analyzed.

[3] = tested on: primary mouse hepatocytes; assay: Viable cell count by trypan blue staining of treated primary hepatocytes; type: cell-based; conditions: FasL 0.5 μg/ml, APAP 1 mM
Protocol: FIG. 2. Primary hepatocytes release CPS1 in response to difference types of liver injury. A: Primary mouse hepatocytes were cultured in the presence of hypoosmotic media (200 mOsm/L), FasL (0.5 μg/ml), and acetaminophen (APAP, 1 mM). The concentrated cell culture media and total cell lysates were used for immunoblotting with antibodies to the indicated proteins. B: After each treatment as in panel A, the viable cell count was determined using trypan blue staining after trypsin treatment. Each bar represents the mean of 10 to 15 fields. […] C: Mouse hepatocytes were challenged with FasL, APAP and hypoosmosis as in Panel A. Cells were fixed and immunostained with CPS1 (red) and counter stained with DAPI (blue). Arrows highlight areas with less dense CPS1 staining. Scale bar=20 μm.
as §1, with “entirety). The liver was perfused with 3-5 ml of perfusion media through the portal vein with a flow rate of 3 ml/min followed by perfusion with 15-20 ml of digestion media containing 150 units/ml of collagenase-II (Worthington) at the same flow rate.” for “entirety).”

[4] = Half-life of CPS1 in mouse serum after FasL injection (western blot densitometry); type: in vivo
Protocol: FIG. 6. CPS1 has a short half-life in mouse serum. In order to determine the half-life of CPS1 in mouse serum, mice (five total) were injected with FasL (0.075 μg/g) and blood was collected from the same animal via tail vain at the indicated time points. Sera were used to determine serum ALT, or mixed with 2× SDS sample buffer to measure circulating serum CPS1 by western blot analysis. CPS1 pixel intensity (CPS1 OD) at each time point was determined by densitometry scanning. Panels A-D: Immunoblots of time-dependent serum CPS1 levels of four individual mice are shown. CPS1 OD and serum ALT values at each time point are indicated. A Coomassie stain of serum is included as loading control. To determine the half-life of serum CPS1, the OD values of 24 h to 32 h of all five mice were used. Assuming an exponential decay, half-life of CPS1 for each time interval was calculated using the equation; Ending amount=Beginning amount/[…]; where n=number of half-lives. […]
as §1

[5] = rats; cited from earlier work

With “FasL: Fas ligand, which induces hepatocyte cell death (apoptosis)” the “liver histology (hematoxylin and eosin)” value (liver [1]) was “marked liver hemorrhage; also recorded: severe hemorrhage formation”.

With `CCOC(=O)C1=C(C)NC(C)=C(C(=O)OCC)C1C` [DDC] the “liver histology (hematoxylin and eosin)” value (liver [2]) was “early evidence of cell drop off at days 10 and 15”.

With `CC(=O)Nc1ccc(O)cc1` [APAP, acetaminophen] the “cell death (viable cell count, trypan blue)” value [3] was “significant cell deaths” and the “liver histology (hematoxylin and eosin)” value (liver [1]) was “necrotic cell death”.

B1: CPS1: most abundant mitochondrial matrix protein of liver, urea cycle enzyme; serum biomarker of acute liver injury (protein, UniProt P31327 39-1500, looked up)
Carbamoyl-phosphate synthase …: LSVKAQTAHIVLEDGTKMKGYSFGHPSSVAGEVVFNTGLGGYPEAITDPAYKGQILTMANPIIGNGGAPDTTALDELGLSKYLESNGIKVSGLLVLDYSKDYNHWLATKSLGQWLQEEKVPAIYGVDTRMLTKIIRDKGTMLGKIEFEGQPVDFVDPNKQNLIAEVSTKDVKVYGKGNPTKVVAVDCGIKNNVIRLLVKRGAEVHLVPWNHDFTKMEYDGILIAGGPGNPALAEPLIQNVRKILESDRKEPLFGISTGNLITGLAAGAKTYKMSMANRGQNQPVLNITNKQAFITAQNHGYALDNTLPAGWKPLFVNVNDQTNEGIMHESKPFFAVQFHPEVTPGPIDTEYLFDSFFSLIKKGKATTITSVLPKPALVASRVEVSKVLILGSGGLSIGQAGEFDYSGSQAVKAMKEENVKTVLMNPNIASVQTNEVGLKQADTVYFLPITPQFVTEVIKAEQPDGLILGMGGQTALNCGVELFKRGVLKEYGVKVLGTSVESIMATEDRQLFSDKLNEINEKIAPSFAVESIEDALKAADTIGYPVMIRSAYALGGLGSGICPNRETLMDLSTKAFAMTNQILVEKSVTGWKEIEYEVVRDADDNCVTVCNMENVDAMGVHTGDSVVVAPAQTLSNAEFQMLRRTSINVVRHLGIVGECNIQFALHPTSMEYCIIEVNARLSRSSALASKATGYPLAFIAAKIALGIPLPEIKNVVSGKTSACFEPSLDYMVTKIPRWDLDRFHGTSSRIGSSMKSVGEVMAIGRTFEESFQKALRMCHPSIEGFTPRLPMNKEWPSNLDLRKELSEPSSTRIYAIAKAIDDNMSLDEIEKLTYIDKWFLYKMRDILNMEKTLKGLNSESMTEETLKRAKEIGFSDKQISKCLGLTEAQTRELRLKKNIHPWVKQIDTLAAEYPSVTNYLYVTYNGQEHDVNFDDHGMMVLGCGPYHIGSSVEFDWCAVSSIRTLRQLGKKTVVVNCNPETVSTDFDECDKLYFEELSLERILDIYHQEACGGCIISVGGQIPNNLAVPLYKNGVKIMGTSPLQIDRAEDRSIFSAVLDELKVAQAPWKAVNTLNEALEFAKSVDYPCLLRPSYVLSGSAMNVVFSEDEMKKFLEEATRVSQEHPVVLTKFVEGAREVEMDAVGKDGRVISHAISEHVEDAGVHSGDATLMLPTQTISQGAIEKVKDATRKIAKAFAISGPFNVQFLVKGNDVLVIECNLRASRSFPFVSKTLGVDFIDVATKVMIGENVDEKHLPTLDHPIIPADYVAIKAPMFSWPRLRDADPILRCEMASTGEVACFGEGIHTAFLKAMLSTGFKIPQKGILIGIQQSFRPRFLGVAEQLHNEGFKLFATEATSDWLNANNVPATPVAWPSQEGQNPSLSSIRKLIRDGSIDLVINLPNNNTKFVHDNYVIRRTAVDSGIPLLTNFQVTKLFAEAVQKSRKVDSKSLFHYRQYSAGKAA
For B1, the “average half-life of CPS1 in mouse serum” value ([4]; mice injected with FasL 0.075 μg/g, OD values of 24 h to 32 h of five mice, mean±standard error of mean) is listed as 2.1 ± 0.15 h, the “half-life of CPS1 in mouse serum” value ([4]; mice, FasL treatment 0.075 μg/g, combination of turnover and ongoing release) is listed as roughly 2.1 h and the “half-life of CPS1” value [5] is listed as 1.12 h.
